Where a chain is given by its changes, count along the chain named. Where two headings read alike, the source gives them in different places. Values belong to the binder of their own block, whether it stands above or below them.
What was measured:
[1] = biological target: T1, Human 20.1 peptide (human); test: ELISA, well supernatant on coated peptide
T1 construct: synthetic peptide from the RB exon
T1 peptide: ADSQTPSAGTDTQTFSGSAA

[2] = biological target: T2, Macaque 46 mer peptide (RB exon of macaque CD45RB) (macaque); test: ELISA, well supernatant on coated peptide
T2 construct: synthetic peptide
T2 peptide: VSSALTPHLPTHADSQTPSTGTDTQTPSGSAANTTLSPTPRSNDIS

[3] = biological target: T3, Human 46 mer peptide (RB exon of human CD45) (human); test: ELISA, well supernatant on coated peptide
T3 construct: synthetic peptide; also called CD45RB 46 mer
T3 peptide: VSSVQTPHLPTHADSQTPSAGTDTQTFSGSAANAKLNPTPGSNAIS

[4] = biological target: T1, Human 20.1 peptide; test: ELISA, well supernatant on coated peptide
[5] = biological target: T2, Macaque 46 mer peptide (RB exon of …); test: ELISA, well supernatant on coated peptide
[6] = biological target: T3, Human 46 mer peptide (RB exon of human …); test: ELISA, well supernatant on coated peptide
[7] = biological target: T1, Human 20.1 peptide; test: recombinant antibody on peptide
[8] = biological target: T2, Macaque 46 mer peptide (RB exon of …); test: recombinant antibody on peptide
[9] = biological target: T3, Human 46 mer peptide (RB exon of human …); test: recombinant antibody on peptide
[10] = biological target: T4, Human 20.2 peptide (human); test: recombinant antibody on peptide
T4 construct: synthetic peptide from the RB exon
T4 peptide: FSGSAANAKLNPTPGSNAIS

[11] = biological target: T5, Human 18 mer peptide (human); test: recombinant antibody on peptide
T5 construct: synthetic peptide from the RB exon
T5 peptide: VSSVQTPHLPTHADSQTPC

[12] = biological target: T6, Human CD45RB (format not stated) (human, UniProt P08575-9 26-1192, limits assumed); test: screening of harvest 9
T6 construct: also called RB exon of CD45
T6 sequence (looked up): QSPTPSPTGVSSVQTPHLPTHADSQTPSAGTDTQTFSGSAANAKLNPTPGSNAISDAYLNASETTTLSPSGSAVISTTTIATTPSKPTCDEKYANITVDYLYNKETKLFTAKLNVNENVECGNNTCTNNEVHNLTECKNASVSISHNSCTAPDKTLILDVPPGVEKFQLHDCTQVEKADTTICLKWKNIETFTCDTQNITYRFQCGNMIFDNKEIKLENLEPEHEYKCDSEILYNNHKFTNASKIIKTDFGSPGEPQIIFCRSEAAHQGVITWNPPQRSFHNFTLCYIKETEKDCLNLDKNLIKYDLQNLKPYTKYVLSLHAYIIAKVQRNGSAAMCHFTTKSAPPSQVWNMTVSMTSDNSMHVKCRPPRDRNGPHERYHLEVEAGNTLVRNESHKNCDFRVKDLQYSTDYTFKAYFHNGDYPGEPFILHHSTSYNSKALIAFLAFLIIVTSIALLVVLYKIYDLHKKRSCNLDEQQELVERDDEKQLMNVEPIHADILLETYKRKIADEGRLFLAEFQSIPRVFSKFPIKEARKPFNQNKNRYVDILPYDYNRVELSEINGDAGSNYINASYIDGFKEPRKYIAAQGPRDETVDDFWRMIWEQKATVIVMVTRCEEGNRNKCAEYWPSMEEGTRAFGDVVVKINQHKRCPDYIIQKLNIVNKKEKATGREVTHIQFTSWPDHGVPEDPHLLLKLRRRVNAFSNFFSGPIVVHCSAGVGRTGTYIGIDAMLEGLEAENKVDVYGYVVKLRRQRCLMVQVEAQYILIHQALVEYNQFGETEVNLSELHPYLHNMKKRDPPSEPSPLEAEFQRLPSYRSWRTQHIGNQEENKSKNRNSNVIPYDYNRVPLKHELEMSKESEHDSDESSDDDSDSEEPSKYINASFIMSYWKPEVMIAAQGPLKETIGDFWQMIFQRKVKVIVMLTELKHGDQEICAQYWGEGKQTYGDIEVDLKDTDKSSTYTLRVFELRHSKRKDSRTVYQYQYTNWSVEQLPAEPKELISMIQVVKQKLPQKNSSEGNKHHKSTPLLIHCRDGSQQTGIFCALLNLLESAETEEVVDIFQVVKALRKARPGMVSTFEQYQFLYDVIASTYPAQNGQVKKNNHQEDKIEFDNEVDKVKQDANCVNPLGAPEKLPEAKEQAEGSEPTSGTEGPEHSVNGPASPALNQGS

[13] = biological target: T7, chimeric CD45RB (full length human CD45RB with the macaque RB exon) transiently expressed in CHO cells (human; macaque, UniProt P08575-9 26-33; P08575-9 81-1192); test: transiently transfected CHO cells
T7 construct: whole chimeric protein on CHO cells; also called Macaque CD45RB CHO
T7 sequence: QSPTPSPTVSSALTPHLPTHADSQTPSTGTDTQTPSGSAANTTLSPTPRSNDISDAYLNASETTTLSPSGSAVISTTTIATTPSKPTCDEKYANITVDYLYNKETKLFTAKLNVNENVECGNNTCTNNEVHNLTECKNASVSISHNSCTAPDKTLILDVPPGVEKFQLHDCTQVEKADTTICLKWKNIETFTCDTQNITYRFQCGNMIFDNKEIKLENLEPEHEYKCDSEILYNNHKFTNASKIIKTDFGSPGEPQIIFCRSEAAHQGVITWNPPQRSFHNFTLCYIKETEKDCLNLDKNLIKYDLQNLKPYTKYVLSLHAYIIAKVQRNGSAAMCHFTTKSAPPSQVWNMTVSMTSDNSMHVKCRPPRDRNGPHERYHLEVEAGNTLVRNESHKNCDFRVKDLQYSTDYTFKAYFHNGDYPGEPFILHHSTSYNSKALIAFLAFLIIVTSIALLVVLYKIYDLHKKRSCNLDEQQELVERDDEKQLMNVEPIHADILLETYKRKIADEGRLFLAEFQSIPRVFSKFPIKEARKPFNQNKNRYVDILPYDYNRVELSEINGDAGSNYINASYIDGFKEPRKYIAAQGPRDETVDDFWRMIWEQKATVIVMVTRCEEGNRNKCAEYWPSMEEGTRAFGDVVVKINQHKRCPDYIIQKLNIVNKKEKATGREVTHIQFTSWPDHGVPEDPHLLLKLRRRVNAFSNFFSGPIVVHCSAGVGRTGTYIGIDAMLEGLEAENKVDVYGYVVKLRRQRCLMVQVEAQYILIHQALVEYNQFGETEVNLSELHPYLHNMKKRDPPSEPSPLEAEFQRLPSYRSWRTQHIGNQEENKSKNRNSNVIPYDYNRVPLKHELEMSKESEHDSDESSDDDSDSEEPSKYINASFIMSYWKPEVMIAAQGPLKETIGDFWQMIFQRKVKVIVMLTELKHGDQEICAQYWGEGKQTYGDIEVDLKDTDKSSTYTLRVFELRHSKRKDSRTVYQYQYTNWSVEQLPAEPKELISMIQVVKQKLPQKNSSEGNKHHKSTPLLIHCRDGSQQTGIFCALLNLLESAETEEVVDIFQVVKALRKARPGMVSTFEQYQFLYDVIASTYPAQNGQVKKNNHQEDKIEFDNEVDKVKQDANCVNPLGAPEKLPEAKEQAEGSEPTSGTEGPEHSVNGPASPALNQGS

[14] = biological target: T6, Human CD45RB (format not stated); test: screening of harvest 2

binding result [7]: no binding | binding result [8]: no binding | binding result [9]: no binding | binding result [10]: no binding | binding result [11]: no binding | binding result [12]: binds
B4: AB-CD45RB-XG2-648 (antibody, human IgG2, V domains shown)
VH: QVQLVESGGGLVKPGGSLRLSCAASGFTFNVYYMNWIRQAPGKGLEWVSYISTSSSAIYYADSVKGRFTISRDNAKNSLYLQMNSLRAEDTAVYYCARRTGSTTVFDYWGQGTLVTVSS
VL: EIVLTQSPATLSVSPGERATLSCRASQSINNNLAWYQQKPGQAPRLLIYGASTRATGIPAKFSGSGSGTEFTLTISSLQSENFAVYYCQQYNKWPLTFGGGTKVEIK
notes: recombinant human IgG2 kappa; also called sc648

binding result [8]: no binding | binding result [9]: no binding | binding result [10]: no binding | binding result [13]: no binding
B7: AB-CD45RB-XG2-539 (antibody, human IgG2, V domains shown)
VH: QVQLQESGPGLVKPSETLSLTCTVSGGSISGSYWSWIRQPAGKGLEWIGRIHSTGKTAYNPSLKSRVIMSLDTSKNLFSLKLTSVTAADTAVYYCARDYDFLTGYFDYWGQGTLVTVSS
VL: DVVMTQSPLSLPVTLGQPASISCRSSQSLVYGDGNTYLNWFQQRPGHSPRRLIYKVSNWDSGVPDRFSGSGSGTDFTLKISRVEAEDVGIYYCMQGTHWPPTFGQGTRVEIK
notes: recombinant human IgG2 kappa; also called sc539

binding result [7]: no binding | binding result [9]: binds | binding result [10]: no binding | binding result [11]: no binding | binding result [14]: binds | binding result [13]: no binding
B8: AB-CD45RB-XG2-009 (antibody, human IgG2, V domains shown)
VH: QVQLVESGGGVVQPGRSLRLSCAASGFTFSNYGMHWVRQAPGKGLEWVAVIWYDGSKRFYAGSVKGRFTISRDNSKNTLYLQMNSLRAEDTAVYYCARTTDYWGQGTMVTVSS
VL: DIVMTQTPLSLSVTPGQPASISCKSSQSLLHSDGKTYLYWYLQKPGQPPQLLIYEVSNRFSGVPDRFSGSGSGTDFTLKISRVEAEDVGLYWCMQSIQLPITFGQGTRLEIK
notes: recombinant human IgG2 kappa; also called sc009; 16C9 (sc009)

More lines, now with the values behind:

B1: antibody in the supernatant of B cell culture well 170B8 (antibody, V domains shown)
VH: AVQLLESGGGLIQPGGSLRLSCAASGFTFSSYAMSWVRQAPGKGLEWVSAISGSGGSTFYADSVRGRFTISRDNSKNTLYLQMNSLRVEDTAVYYCAKEVMGPIFFDYWGQGTLVTVSS
VL: EIVLTQSPGTLSLSPGERATLSCRASQSIISSALAWYQQKPGQAPRLLIYGASSRATGIPDRFSGSGSGTDFTLTISRLEPEDFAVYHCQQYGSTPLTFGGGTKVEIK
notes: recombinant 475 came from this well
ELISA reading [1]: 3.9 | ELISA reading [2]: 0.8 | ELISA reading [3]: 2.5

B2: antibody in the supernatant of B cell culture well 255D9 (antibody, V domains shown)
VH: QVQLVESGGGVVQPGRSLRLSCAASGFTFSNYGMHWVRQAPGKGLEWVAVIWYDGSKKFYADSVKGRFTISRDNFEKTLYLQMNSLRAEDTAVYYCARGGGDFDYWGQGTLVTVSS
VL: EIVMTQSPATLSVSPGERATLSCRASQSLSGSYLAWYQQKPGQAPRLLIYSASTRATGIPARFSGSGSGTEFTLTISSLQSEDFAVYYCQQYNNWPPLTFGGGTKVEIK
notes: recombinant 713 came from this well
ELISA reading [4]: 0.1 | ELISA reading [5]: 0.1 | ELISA reading [6]: 3.5

B3: antibody in the supernatant of B cell culture well 227E10 (antibody, V domains shown)
VH: QVHLVESGGGLVKPGGSLRLSCAASGFTFINYYMTWIRQAPGKGLEWVSYISLSGSTIYYADSVKGRFTISRDNAKNSLFLQMNSLRAEDTAVYYCARRAATVTTFDYWGQGTLVTVSS
VL: B4 VL with L4M, I29V, N30R, N31S, Y36S, K61R, N82D, K93N
ELISA reading [4]: 0.1 | ELISA reading [5]: 0.2 | ELISA reading [6]: 0.2

B5: antibody in the supernatant of B cell culture well 283B2 (antibody, V domains shown)
VH: B4 VH
VL: B4 VL
notes: recombinant 648 came from this well
ELISA reading [4]: 0.1 | ELISA reading [5]: 0.2 | ELISA reading [6]: 0.2

B6: antibody in the supernatant of B cell culture well 250F2 (antibody, V domains shown)
VH: QVQLVESGGDLVKPGGSLRLSCAASGFSFSGYYLSWIRQAPGKGLEWVSYISLSGSFIKYADSVKGRFTISRDNAKKTLHLQMNSLRAEDTAVYYCARRTGTTTVFDYWGQGTLVTVSS
VL: B4 VL with I2V, L4M, I29V, N31S, K39R, A55V, K61R, N82D, K93N
notes: recombinant 662 came from this well
ELISA reading [4]: 0.1 | ELISA reading [5]: 0.2 | ELISA reading [6]: 0.2

Source: patent US20030232009A1 (Amgen, published 2003)
